Patent US20070086956A1, “Method for accelerating the rate of mucociliary clearance” (BAYER AKTIENGESELLSCHAFT, priority 1998, published 2007)
“Also recorded” adds a separate entry of the source.

Experiments:
[1] = system: guinea pig tracheal epithelial cells; test: Short circuit current (Isc) in cultured guinea pig tracheal epithelial (GPTE) cells; assay type: cell-based; conditions: 50 ug/mL; over a 30 minute period; FIG. 23
Method: The aim of this study was to investigate the effect of Bikunin (1-170) (See Example 17) on Isc on GPTE cells in vitro. GPTE cells were seeded onto 1.2 cm diameter, 0.4 um pore size Snapwell™ inserts (Costar UK). Cells were grown to confluence and mounted in modified Ussing chambers 2-4 days after placement on air-liquid interface. Inserts were immersed in Krebs buffer (KBR) solution and bubbled with 95% O2/5% CO2 warmed to 370 C.
After a 20 minute equilibration period, transepithelial potential difference was then clamped to 0 mV using a WPI EVC 4000 voltage clamp. Ag/AgCl electrodes were used to monitor Isc. Once a stable baseline was achieved (typically 20-30 mins), cells were treated with amiloride (30 uM). Once a response to amiloride was obtained, it was washed out with KBR solution. After return to baseline and equilibration, Bikunin (1-170) described in Example 17 (10 to 50 ug/mL) or PBS was added. 30 minutes following agent treatment amiloride (30 uM) was added.

guinea pig trachea [2] = test: Tracheal potential difference in guinea pigs pretreated with LPS; assay type: in vivo; conditions: 50 ug/mL topical instillation; guinea pigs pre-exposed to LPS; FIG. 25(b)
Method: Polymorphonuclear (PMN) leukocyte (neutrophil) dominated airway inflammation is often a feature of CF lung disease. In the guinea pig, exposure to an aerosol of E. coli lipopolysaccharide (LPS) induces a marked PMN influx in the bronchoalveolar Iavage fluid 24 hours post challenge. The aim of this study was to investigate the effect of Bikunin (1-170) described in Example 17 on tracheal potential difference in guinea pigs pre-exposed to an aerosol of LPS. Agents were delivered into the cephalad trachea by topical instillation. TPD was monitored for 60 minutes, 23 hours after exposure to LPS.
Bikunin (1-170) was formulated in Hank's Balanced salt solution (HBSS). Amiloride was obtained from Sigma Chemicals and formulated in HBSS. Vehicle control was HBSS. Hypnorm (Fentanyl citrate 0.315 mg/mL and Fluanisone 10 mg/mL) was obtained from Janssen Animal Health and Hypnovel (Midazolam 5 mg.mL) was obtained from Roche. […]
23.4 hours following LPS treatment, guinea pigs were anaesthetised with Hypnorm and Hypnovel and immobilised in a supine position. […] Rectal temperature was monitored with a thermistor probe.
20 minutes following induction of anaesthesia, Bikunin (50 ug/mL) or amiloride (100 uM) was topically instilled into the cephalad trachea. The tracheal agar electrode was then inserted into the cephalad trachea and tracheal potential difference was measured for 60 minutes. […]

guinea pig trachea [3] = test: Tracheal mucus velocity (TMV) in the guinea-pig; assay type: in vivo; conditions: 5 ug tracheal instillation; 1.5 to 2.5 hours following administration; FIG. 16(c)
Method: The aim of this study was to investigate the effect of the Kunitz family serine protease inhibitor Bikunin on guinea-pig tracheal mucus velocity 1.5 hours post treatment. This agent was delivered into the cephalad trachea by topical instillation. TMV was monitored 1.5 hours later for 60 mins. The procedure used in this Example is described in Newton et al. in “Cila, Mucus and Mucociliary Interactions,” Ed., Baum, G. L. et al., Marcel Dekker, New York, 1998; Newton et al., Ped. Pulm. S17, Abs. 364, 1998). […]
TMV was monitored using a lead collimated miniature Beta particle detector probe arranged to detect the radioactivity emitted from an injected aliquot of ^32P-labelled Saccharomyces cerevisiae as it was transported on the tracheal mucociliary layer of an anaesthetized guinea pig (Newton and Hall 1998) FIG. 16(a) illustrates the arrangement of the syringe and beta probe. FIG. 16(b) illustrates the counts detected by the probe as the ^32P-labelled S. cerevisiae is transported along the tracheal mucociliary layer. […]
The aim of this comparative study was to investigate the effect of hypertonic saline (14.4%×5 min) on guinea-pig tracheal mucus velocity. […] TMV was monitored immediately and every 15 minutes for 30 minutes. […]

B1: CHO Bikunin (1-170): Glycosylated placental bikunin (1-170), SEQ ID NO: 52, expressed in Chinese hamster ovary cells (Example 17) (protein, listed as Homo sapiens)
chain: ADRERSIHDFCLVSKVVGRCRASMPRWWYNVTDGSCQLFVYGGCDGNSNNYLTKEECLKKCATVTENATGDLATSRNAADSSVPSAPRRQDSEDHSSDMFNYEEYCTANAVTGPCRASFPRWYFDVERNSCNNFIYGGCRGNKNSYRSEEACMLRCFRQQENPPLPLGSK
modifications: glycosylated, CHO-expressed
B1 was tested, and the sodium current [1] was “inhibited sodium current”, the tracheal potential difference (guinea pig trachea [2]) was “significantly inhibited potential difference” and the TMV (guinea pig trachea [3]) was “increased TMV; also recorded: sustained increase in TMV”.
